What was measured:
[1] = target: Flag-FUS-R521H (human) (UniProt P35637); assay: proximity ligation; PLA of Flag vs XRCC1, LigIII or PARP-1 in GO-treated SH-SY5Y cells expressing Flag-tagged WT or R521H FUS
[2] = target: XRCC1/LigIII complex, purified from insect cells (UniProt P18887 1-633; P49916 88-1009); assay: cell-based or functional assay
[3] = target: T1, PARP-1, His-tag protein, purified (human, UniProt P09874 1-1014); assay: pull-down; GST-FUS with the partner at 4 C overnight on glutathione affinity gel, washed three times with TEN buffer (20 mM Tris-HCl pH 7.4, 0.1 mM EDTA, 100 mM NaCl), immunoblot; for XRCC1 also in the presence of PARP-1 and NAD+ (PARylation enhanced the interaction); conditions: both partners purified
T1 construct: human PARP1, recombinant; also called human PARP1 purified protein; source: expressed as His-tag protein, purified (Ni-agarose column, cation exchange)
T1 sequence (P09874 whole entry): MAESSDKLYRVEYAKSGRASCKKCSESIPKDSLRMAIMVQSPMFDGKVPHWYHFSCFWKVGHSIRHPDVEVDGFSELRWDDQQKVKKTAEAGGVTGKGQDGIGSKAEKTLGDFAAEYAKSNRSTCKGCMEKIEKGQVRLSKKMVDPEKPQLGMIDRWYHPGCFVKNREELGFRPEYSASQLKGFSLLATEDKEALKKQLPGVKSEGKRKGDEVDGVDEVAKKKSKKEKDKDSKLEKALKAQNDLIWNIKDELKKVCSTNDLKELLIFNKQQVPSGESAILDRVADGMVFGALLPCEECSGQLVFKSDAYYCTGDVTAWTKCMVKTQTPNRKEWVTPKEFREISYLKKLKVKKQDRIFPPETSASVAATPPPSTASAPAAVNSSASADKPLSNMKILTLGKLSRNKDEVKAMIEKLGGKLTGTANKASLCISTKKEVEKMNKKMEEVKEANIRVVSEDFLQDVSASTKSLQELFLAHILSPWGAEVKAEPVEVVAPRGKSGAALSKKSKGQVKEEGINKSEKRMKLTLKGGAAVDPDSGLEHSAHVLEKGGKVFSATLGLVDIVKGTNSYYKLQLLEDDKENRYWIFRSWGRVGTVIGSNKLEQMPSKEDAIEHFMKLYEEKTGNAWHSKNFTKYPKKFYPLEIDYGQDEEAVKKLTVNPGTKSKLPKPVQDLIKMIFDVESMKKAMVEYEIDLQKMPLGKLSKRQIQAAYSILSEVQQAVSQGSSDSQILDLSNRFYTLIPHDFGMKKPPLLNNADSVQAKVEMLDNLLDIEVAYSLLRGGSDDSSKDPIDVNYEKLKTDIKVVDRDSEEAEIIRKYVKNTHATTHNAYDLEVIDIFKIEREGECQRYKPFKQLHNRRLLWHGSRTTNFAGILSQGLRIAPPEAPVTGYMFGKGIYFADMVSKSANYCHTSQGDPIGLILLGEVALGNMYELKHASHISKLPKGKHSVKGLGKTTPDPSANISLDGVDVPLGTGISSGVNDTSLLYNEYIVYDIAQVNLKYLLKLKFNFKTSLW

Chain of XRCC1/LigIII complex, purified from insect cells (P18887 whole entry, chain 1 of 2): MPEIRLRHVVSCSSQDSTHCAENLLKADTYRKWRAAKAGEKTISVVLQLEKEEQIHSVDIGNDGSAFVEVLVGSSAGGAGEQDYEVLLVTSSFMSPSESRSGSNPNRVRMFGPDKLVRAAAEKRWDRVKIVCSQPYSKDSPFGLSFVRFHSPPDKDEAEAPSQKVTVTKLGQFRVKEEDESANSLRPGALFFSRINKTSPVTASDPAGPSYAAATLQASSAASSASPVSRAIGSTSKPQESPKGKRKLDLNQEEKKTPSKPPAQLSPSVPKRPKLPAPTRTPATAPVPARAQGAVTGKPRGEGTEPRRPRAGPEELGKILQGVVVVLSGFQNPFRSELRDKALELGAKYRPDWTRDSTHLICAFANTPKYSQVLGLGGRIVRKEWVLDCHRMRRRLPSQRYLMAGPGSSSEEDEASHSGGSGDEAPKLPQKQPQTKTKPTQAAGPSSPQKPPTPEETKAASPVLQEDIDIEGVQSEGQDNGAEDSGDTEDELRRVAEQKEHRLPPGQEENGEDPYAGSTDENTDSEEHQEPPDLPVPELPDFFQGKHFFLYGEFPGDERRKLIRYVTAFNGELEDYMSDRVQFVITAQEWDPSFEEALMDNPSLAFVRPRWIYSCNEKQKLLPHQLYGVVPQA
Chain of XRCC1/LigIII complex, purified from insect cells (P49916 88-1009, chain 2 of 2): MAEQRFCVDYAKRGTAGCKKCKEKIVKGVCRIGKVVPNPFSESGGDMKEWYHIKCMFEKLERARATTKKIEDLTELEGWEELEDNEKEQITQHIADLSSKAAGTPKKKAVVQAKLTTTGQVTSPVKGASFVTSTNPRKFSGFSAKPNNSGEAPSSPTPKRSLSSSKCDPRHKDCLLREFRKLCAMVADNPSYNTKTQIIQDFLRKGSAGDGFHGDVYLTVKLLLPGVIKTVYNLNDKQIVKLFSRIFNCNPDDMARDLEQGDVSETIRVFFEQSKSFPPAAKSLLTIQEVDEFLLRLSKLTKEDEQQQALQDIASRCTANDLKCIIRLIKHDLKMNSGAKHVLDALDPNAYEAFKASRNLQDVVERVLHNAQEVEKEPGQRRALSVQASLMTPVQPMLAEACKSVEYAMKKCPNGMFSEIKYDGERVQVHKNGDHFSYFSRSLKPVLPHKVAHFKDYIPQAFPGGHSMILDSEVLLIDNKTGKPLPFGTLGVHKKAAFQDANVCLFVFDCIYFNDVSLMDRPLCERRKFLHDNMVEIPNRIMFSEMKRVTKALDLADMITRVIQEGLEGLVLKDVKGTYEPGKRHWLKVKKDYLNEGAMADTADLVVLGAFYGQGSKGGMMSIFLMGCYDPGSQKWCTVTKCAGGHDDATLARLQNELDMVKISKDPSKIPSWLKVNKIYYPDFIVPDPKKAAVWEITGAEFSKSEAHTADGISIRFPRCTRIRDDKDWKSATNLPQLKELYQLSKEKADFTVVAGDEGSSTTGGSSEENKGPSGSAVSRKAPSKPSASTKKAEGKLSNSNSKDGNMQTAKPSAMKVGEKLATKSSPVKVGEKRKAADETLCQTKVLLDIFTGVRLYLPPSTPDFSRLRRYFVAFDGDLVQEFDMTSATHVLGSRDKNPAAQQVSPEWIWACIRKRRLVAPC

Molecule	percent reduction of PLA association against WT FUS [1] [%]	catalytic efficiency of LigIII in the nick ligation reaction of XRCC1/LigIII with or without FUS [2] [fold]	in vitro DNA nick ligation by XRCC1/LigIII complex (100 f.moles) with FUS 10-500 f.moles; fold change in ligated product [2] [fold]	binding result [3]
DNA Ligase IIIalpha (LigIII), endogenous (from UniProt P49916 43-1009) (enzyme)	> 80	–	–	–
GST-FUS (natural protein, human, UniProt P35637 1-526, looked up, FUS in pGEX6P-1, plasmid purchased from Addgene; The FUS of the ligation assays is named only 'purified FUS'; also called purified FUS; recombinant FUS; source: E. coli BL21, purified (glutathione-Sepharose 4B)) MASNDYTQQATQSYGAYPTQPGQGYSQQSSQPYGQQSYSGYSQSTDTSGYGQSSYSSYGQSQNTGYGTQSTPQGYGSTGGYGSSQSSQSSYGQQSSYPGYGQQPAPSSTSGSYGSSSQSSSYGQPQSGSYSQQPSYGGQQQSYGQQQSYNPPQGYGQQNQYNSSSGGGGGGGGGGNYGQDQSSMSSGGGSGGGYGNQDQSGGGGSGGYGQQDRGGRGRGGSGGGGGGGGGGYNRSSGGYEPRGRGGGRGGRGGMGGSDRGGFNKFGGPRDQGSRHDSEQDNSDNNTIFVQGLGENVTIESVADYFKQIGIIKTNKKTGQPMINLYTDRETGKLKGEATVSFDDPPSAKAAIDWFDGKEFSGNPIKVSFATRRADFNRGGGNGRGGRGRGGPMGRGGYGGGGSGGGGRGGFPSGGGGGGGQQRAGDWKCPNPTCENMNFSWRNECNQCKAPKPDGPGGGPGGSHMGGNYGDDRRGGRGGYDRGGYRGRGGDRGGFRGGRGGGDRGGFGPGKMDSRGEHRQDRRERPY	–	4	~5	binds
